{
  "source": "patent US11034757B2",
  "about": "“Combination therapies using agents that target tumor-associated stroma or tumor cells and tumor vasculature” (BIOMED VALLEY DISCOVERIES, INC., priority 2014, dated 2021)",
  "molecules": {"B1": {"name": "M830: anti-TEM8 monoclonal antibody (hIgG1); VH SEQ ID NO:5, VL SEQ ID NO:6 (antibody, V domains shown)", "VH": "EVQLVESGGGVVQPGRSVRLSCAASGFTFSTYTMHWVRQAPGKGLEWVAIISNDGSNKYYADPVRGRFTISRDNSKNTLYLQMNSLRAEDTAVYYCVRGSSWYRGNWFDPWGQGTLVTVSS", "VL": "DIQMTQSPSSLSASVGDRVTIACRASQTISRYLNWYQQKPGKAPKLLIYAASSLQSGVSSRFSGSGSGTEFTLTISSLQPEDFATYFCQQTYSPPITFGQGTRLEIKR", "modifications": "TEM830 mAb VH; TEM830 mAb VL"}},
  "key": {"[1]": {"test_system": "MC38 colon carcinoma liver metastasis", "assay": "M830 in MC38 colon carcinoma liver metastasis model", "format": "in vivo, C57BL/6 mice", "description": "C57BL/6 mice were challenged with MC38 colon carcinoma liver metastasis by intrasplenic injections of cultured cells."}, "[2]": {"test_system": "H460 non-small cell lung carcinoma xenograft", "assay": "M830 in the H460 non-small cell lung carcinoma xenograft model", "format": "in vivo, mouse", "conditions": "combination partner Paclitaxel", "procedure": "Tumor cells were cultured in RPMI-1640 medium supplemented with 10% fetal bovine serum, 2 mM glutamine, 100 units/mL penicillin G sodium, 100 μg/mL streptomycin sulfate, and 25 μg/mL gentamicin. The tumor cells were grown in tissue culture flasks in a humidified incubator at 37° C., in an atmosphere of 5% CO2 and 95% air.\nCriteria for Regression Responses\nAnimals were monitored for regression responses.\nThe statistical tests were not adjusted for multiple comparisons.\nCultured H460 cells were harvested during exponential growth and resuspended in phosphate buffered saline at a concentration of 1×10^8 cells/mL. 1.0×10^7 tumor cells were injected subcutaneously into the flank of athymic nude mice. Animals were euthanized when tumors reached the pre-determined volume endpoint of 2000 mm^3 or on the final day (Day 88), whichever came first. […] Each treatment produced a significant survival difference versus controls (P<0.01). The median TTE for controls was 22.8 days, establishing a maximum possible TGD of 65.2 days (286%) for the 88-day study."}, "[3]": {"test_system": "UACC melanoma cells", "assay": "TEM8 antibody efficacy in UACC melanoma model", "format": "in vivo, mouse", "conditions": "15 mg/kg, 3 times per week for 3-4 weeks; start at 50 mm^3", "procedure": "UACC melanoma cells were cultured and injected subcutaneously into mice. Treatment was initiated with a tumor volume of 50 mm^3, and treatment groups consisted of one of four TEM8 antibodies (M825, M830, M863, and M822), each dosed at 15 mg/kg, 3 times per week for 3-4 weeks."}},
  "data": [
    {"molecule": "B1", "values": [
      {"measurement": "effect on survival", "setting": "[1]; P=0.0001", "value": "significantly improved the survival"},
      {"measurement": "median survival", "setting": "[1]; vehicle 11 days", "value": 17, "unit": "days"},
      {"measurement": "regression (at Day 21, vs. vehicle column)", "setting": "[2]", "value": "(−61%"},
      {"measurement": "effect on tumor growth in the UACC melanoma model", "setting": "[3]", "value": "effective at slowing tumor growth"}
    ]}
  ]
}
